{"source": "patent US20100081620", "biological_target": "T1, Dabcyl-LAQAHomoPheRSC(Fluorescein)-NH2", "T1 chain": "LAQAFRSC", "assay": "enzyme kinetics, initial velocities fitted to a pure competitive two-site model", "data": [{"protein": "Human ADAM10 protease containing the catalytic/disintegrin domains (protein) TTSAEKNTCQLYIQTDHLFFKYYGTREAVIAQISSHVKAIDTIYQTTDFSGIRNISFMVKRIRINTTADEKDPTNPFRFPNIGVEKFLELNSEQNHDDYCLAYVFTDRDFDDGVLGLAWVGAPSGSSGGICEKSKLYSDGKKKSLNTGIITVQNYGSHVPPKVSHITFAHEVGHNFGSPHDSGTECTPGESKNLGQKENGNYIMYARATSGDKLNNNKFSLCSIRNISQVLEKKRNNCFVESGQPICGNGMVEQGEECDCGYSDQCKDECCFDANQPEGRKCKLKPGKQCSPSQGPCCTAQCAFKSKSEKCRDDSDCAREGICNGFTALCPASDPKPNFTDCNRHTQVCINGQCAGSICEKYGLEECTCASSDGKDDKELCHVCCMKKMDPSTCASTGSVQWSRHFSGRTITLQPGSPCNDFRGYCDVFMRCRLVDADGPLARLKKAIFSPELYENIAE", "values": [{"measurement": "Ks (binding constant for substrate)", "result": "the binding constant, Ks for substrate was 16±4.6 µM"}]}]}
